Experimental data published in paper doi:10.1101/313791 (bioRxiv, 2018).

B1: HDA19-EGFP (HDA19pro:HDA19-EGFP) (enzyme, Arabidopsis thaliana, UniProt O22446 1-501, looked up)
chain: MDTGGNSLASGPDGVKRKVCYFYDPEVGNYYYGQGHPMKPHRIRMTHALLAHYGLLQHMQVLKPFPARDRDLCRFHADDYVSFLRSITPETQQDQIRQLKRFNVGEDCPVFDGLYSFCQTYAGGSVGGSVKLNHGLCDIAINWAGGLHHAKKCEASGFCYVNDIVLAILELLKQHERVLYVDIDIHHGDGVEEAFYATDRVMTVSFHKFGDYFPGTGHIQDIGYGSGKYYSLNVPLDDGIDDESYHLLFKPIMGKVMEIFRPGAVVLQCGADSLSGDRLGCFNLSIKGHAECVKFMRSFNVPLLLLGGGGYTIRNVARCWCYETGVALGVEVEDKMPEHEYYEYFGPDYTLHVAPSNMENKNSRQMLEEIRNDLLHNLSKLQHAPSVPFQERPPDTETPEVDEDQEDGDKRWDPDSDMDVDDDRKPIPSRVKREAVEPDTKDKDGLKGIMERGKGCEVEVDESGSTKVTGVNPVGVEEASVKMEEEGTNKGGAEQAFPPKT

Tests used:
[1] = molecular target: the molecule itself; assay: fluorescence correlation spectroscopy
[2] = molecular target: B1; assay: fluorescence correlation spectroscopy

Row | Binder | stoichiometry N [1] | percent of the complex in a 1:1 ratio [2] [%] | stoichiometry N [2]
1 | B1 | 2 |  | 
2 | SCR-mCherry (SCRpro:SCR-mCherry) (natural protein, Arabidopsis thaliana, UniProt Q9M384 1-653, looked up) MAESGDFNGGQPPPHSPLRTTSSGSSSSNNRGPPPPPPPPLVMVRKRLASEMSSNPDYNNSSRPPRRVSHLLDSNYNTVTPQQPPSLTAAATVSSQPNPPLSVCGFSGLPVFPSDRGGRNVMMSVQPMDQDSSSSSASPTVWVDAIIRDLIHSSTSVSIPQLIQNVRDIIFPCNPNLGALLEYRLRSLMLLDPSSSSDPSPQTFEPLYQISNNPSPPQQQQQHQQQQQQHKPPPPPIQQQERENSSTDAPPQPETVTATVPAVQTNTAEALRERKEEIKRQKQDEEGLHLLTLLLQCAEAVSADNLEEANKLLLEISQLSTPYGTSAQRVAAYFSEAMSARLLNSCLGIYAALPSRWMPQTHSLKMVSAFQVFNGISPLVKFSHFTANQAIQEAFEKEDSVHIIDLDIMQGLQWPGLFHILASRPGGPPHVRLTGLGTSMEALQATGKRLSDFADKLGLPFEFCPLAEKVGNLDTERLNVRKREAVAVHWLQHSLYDVTGSDAHTLWLLQRLAPKVVTVVEQDLSHAGSFLGRFVEAIHYYSALFDSLGASYGEESEERHVVEQQLLSKEIRNVLAVGGPSRSGEVKFESWREKMQQCGFKGISLAGNAATQATLLLGMFPSDGYTLVDDNGTLKLGWKDLSLLTASAWTPRS |  | 98.8 | 1 ratio (1:1)
